From the supplement of paper PMC9170038 come the findings set out here.

In the data set the test system is MS2 coat protein. As to the kind of experiment: apparent KD of MS2 coat protein; designed switch direction (-1 OFF switch, 1 ON switch): 1; higher = weaker reporter binding. In outline:
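Each step of the titration lasted 0.8–1.5 h at the lowest concentration and 10–20 min at the highest. The protein, SNAP-549-labelled MS2 coat protein, went from 0.7 or 1.5 nM doubling to 3 µM over RNA switches transcribed on Illumina chips by stalled E. coli RNA polymerase. Normalised cluster fluorescence was curve-fitted, and the per-design median over clusters is given as apparent KD.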

[1] abbreviates: input ligand: microRNA oligo, concentration not stated.

On to “GCGAUAUGAUGUUACAUGAGGAUCACCCAUGUAGCGACAGCUAAGGAUAUUGGAAAGGGAGGAGACGAGAAGGUAGGGUCACGC [AK SSNG3-V2-24] (Eterna round: R96, puzzle: Same State NG 3)”, for which the “apparent KD of MS2 coat protein” value is, setting by setting: (input ligand: FMN 200 uM) 22.9 nM; under setting [1], 15.8 nM; (input ligand: none) 19.7 nM.

With “GCGAUAUGAUGUUACAUGAGGAUCACCCAUGUAGCGAUAGCUAAGGAUAUUGGAAAGGGAGGAGACGAGAAGGUAGGAUCACGC [AK SSNG3-V2-23.1] (Eterna round: R96, puzzle: Same State NG 3)”, the “apparent KD of MS2 coat protein” value is, setting by setting: (input ligand: FMN 200 uM) 44.9 nM; under setting [1], 15.7 nM; (input ligand: none) 36.1 nM.

Turning to “GCGCACGAUCACAGUAACAUGAGGAUCACCCAUGUGUUACCGGAGGAUAUGCAAGCCCAUGCAGCGCAGAAGGCCGGGAACGUA [Eternabot solution 24] (Eterna round: R96, puzzle: Same State NG 3)”, the “apparent KD of MS2 coat protein” value amounted to 151 nM (input ligand: FMN 200 uM), 131 nM under setting [1] and 147 nM (input ligand: none).

For “GCGCUCCAAGGAGCUGCGACAUGAGGAUCACCCAUGUAAUCACAGGAUAUGCGAUUCCGAAUUUUGCAGAAGGGUGAUAAGAAC [Asorila] (Eterna round: R96, puzzle: Same State NG 3)”, the “apparent KD of MS2 coat protein” value stood at 482 nM (input ligand: FMN 200 uM), 491 nM under setting [1] and 241 nM (input ligand: none).

Consider “GCGGAAACUCACAUGAGGAUCACCCAUGUUCCGGAAACGGCACAGGAUAUCUGUCCGAAAAGGUCAGAGAAGGGUGUAAUCCGC [Fiskers NG3ss - 90] (Eterna round: R96, puzzle: Same State NG 3)”, for which the “apparent KD of MS2 coat protein” value is 572 nM (input ligand: FMN 200 uM), 101 nM under setting [1] and 79.6 nM (input ligand: none).

For the sequence “GCGGAACAUGAGGAUCACCCAUGUGGAGGGUGUAAAGGAUAUUAUAGAGAGAAGGUAGGGUAAGAAGGUUGCUUGG [JR_SS1_Sub089] (puzzle: Same State 1)”, the “apparent KD of MS2 coat protein” value runs as follows: (Eterna round: R95, input ligand: FMN 200 uM) 202 nM; (Eterna round: R95, input ligand: microRNA oligo, concentration not stated) 96 nM; (Eterna round: R95, input ligand: none) 541 nM.

“GCGGACUUCACAUGAGGAUCACCCAUGUUGCGGAGACGCAAUGAGGAUAUCGAUGGGUUUCCCGUCGAGAAGGCAUAAAUCCGC [JL SSNG3 3.93 mod 5] (Eterna round: R96, puzzle: Same State NG 3)”: the “apparent KD of MS2 coat protein” value reads like this: (input ligand: FMN 200 uM) 25.2 nM; under setting [1], 30 nM; (input ligand: none) 49.8 nM.

Take “GCUACCAAAGAAGCCAACAUGAGGAUCACCCAUGUAUGUUGGCAGGAUAUCGUUUGCAAAGCGAACGAGAAGGGCUAAGGUAGC [Mat - Same State NG 3 - JL Mod - D89] (Eterna round: R96, puzzle: Same State NG 3)”: the “apparent KD of MS2 coat protein” value reads like this: (input ligand: FMN 200 uM) 197 nM; under setting [1], 116 nM; (input ligand: none) 231 nM.

With “GCUACCAAAGAAGCCAACAUGAGGAUCACCCAUGUAUGUUGGUAGGAUAUCGAUUGCAAAGCGAUCGAGAAGGGCUAAGGUAGC [Mat - Same State NG 3 - JL Mod - D84] (Eterna round: R96, puzzle: Same State NG 3)”, the “apparent KD of MS2 coat protein” value is, setting by setting: (input ligand: FMN 200 uM) 132 nM; under setting [1], 93.1 nM; (input ligand: none) 95.5 nM.

For “GCUACCAAAGAAGCCAACAUGAGGAUCACCCAUGUAUGUUGGUAGGAUAUCGUAUGCAAAGCAUACGAGAAGGGCUAAGGUAGC [Mat - Same State NG 3 - JL Mod - D78] (Eterna round: R96, puzzle: Same State NG 3)”, the “apparent KD of MS2 coat protein” value under setting [1] turned out to be 86.9 nM.

With “GCUACCAAUGAAGCCAACAUGAGGAUCACCCAUGUAUGUUGGUAGGAUAUCGAUUGCAAAGCGAUCGAGAAGGGCUAAGGUAGC [Mat - Same State NG 3 - JL Mod - D82] (Eterna round: R96, puzzle: Same State NG 3)”, the “apparent KD of MS2 coat protein” value by setting is: (input ligand: FMN 200 uM) 51.9 nM; under setting [1], 59.6 nM; (input ligand: none) 54.5 nM.

Turning to “GCUACCAAUGAAGCCAACAUGAGGAUCACCCAUGUAUGUUGGUAGGAUAUCGUUUGCUUUGCAAACGAGAAGGGCUAAGGUAGC [JL SSNG3 1.26] (Eterna round: R96, puzzle: Same State NG 3)”, the “apparent KD of MS2 coat protein” value stood at 42.2 nM (input ligand: FMN 200 uM), 39.2 nM under setting [1] and 42.6 nM (input ligand: none).

“GCUAGAAAUAAAGCCAACAUGAGGAUCACCCAUGUAUGUUGGUAGGAUAUCGUUUGCAAAGCAAACGAGAAGGGCUAAACUAGC [Mat - Same State NG 3 - JL Mod - D17] (Eterna round: R96, puzzle: Same State NG 3)”: the “apparent KD of MS2 coat protein” value (input ligand: FMN 200 uM) worked out at 61.6 nM, the “apparent KD of MS2 coat protein” value under setting [1] is 68.8 nM and the “apparent KD of MS2 coat protein” value (input ligand: none) stood at 61 nM.

Regarding “GCUAGAAAUAAUGCCAACAUGAGGAUCACCCAUGUAUGUUGGCAGGAUAUCGUUUGCAAAGCAAACGAGAAGGGCUAAACUAGC [Mat - Same State NG 3 - JL Mod - D8] (Eterna round: R96, puzzle: Same State NG 3)”, the “apparent KD of MS2 coat protein” value reads like this: (input ligand: FMN 200 uM) 236 nM; under setting [1], 237 nM; (input ligand: none) 338 nM.

As for “GCUAGAAUAAAUGCCUACAUGAGGAUCACCCAUGUAUGUAGGCAGGAUAUCGUAUGCAAAGCAUACGAGAAGGGCCUUACUAGC [Mat - Same State NG 3 - JL Mod - D30] (Eterna round: R96, puzzle: Same State NG 3)”, the “apparent KD of MS2 coat protein” value (input ligand: FMN 200 uM) is 22.7 nM, the “apparent KD of MS2 coat protein” value under setting [1] came out at 55.4 nM and the “apparent KD of MS2 coat protein” value (input ligand: none) is 85.2 nM.

For “GCUAGAAUUAAAGCCAACAUGAGGAUCACCCAUGUAUGUUGGUAGGAUAUCGUUUGCUUUGCAAACGAGAAGGGCUAAUCUAGC [JL SSNG3 1.22] (Eterna round: R96, puzzle: Same State NG 3)”, the “apparent KD of MS2 coat protein” value worked out at 62.4 nM (input ligand: FMN 200 uM), 59.8 nM under setting [1] and 69.2 nM (input ligand: none).

For the sequence “GCUAGGAUAUGACGAGGAUCACCCGUUAGAAGGAGCGAAAGCUAGGAUAUGACGAGGAUCACCCGUUAGAAGGAGCUGUCCUCU [pwkr ssNG3 DX 2xF5 +2xFMN.11] (Eterna round: R96, puzzle: Same State NG 3)”, the “apparent KD of MS2 coat protein” value worked out at 200 nM (input ligand: FMN 200 uM), 80.1 nM under setting [1] and 111 nM (input ligand: none).

On to “GCUAGGAUUAAAGCCAACAUGAGGAUCACCCAUGUAUGUUGGUAGGAUAUCGUUUGCUUUGCAAACGAGAAGGGCUAACCUAGC [JL SSNG3 1.23] (Eterna round: R96, puzzle: Same State NG 3)”, for which the “apparent KD of MS2 coat protein” value was 70.6 nM (input ligand: FMN 200 uM), 57.8 nM under setting [1] and 62.1 nM (input ligand: none).

Take “GCUCCAAACACAGGAUAUGGAAUCUGAUUCAUGCGAGUGACAUGAGGAUCACCCAUGUCCGGCAGCCAGAAGGGUGGGAAACAU [Eternabot solution 27] (Eterna round: R96, puzzle: Same State NG 2)”: the “apparent KD of MS2 coat protein” value reads like this: (input ligand: FMN 200 uM) 184 nM; under setting [1], 151 nM; (input ligand: none) 201 nM.

Take “GCUCGACGUAUUGUCUACAUGAGGAUCACCCAUGUAGGUGCGGAGGAUAUCUACGUGUUUCAUGUAGAGAAGGUCGUGUCGAGC [SameState NG3 #90] (Eterna round: R96, puzzle: Same State NG 3)”: the “apparent KD of MS2 coat protein” value is, setting by setting: (input ligand: FMN 200 uM) 56 nM; under setting [1], 155 nM; (input ligand: none) 177 nM.

For the sequence “GCUCGACGUAUUGUCUACAUGAGGAUCACCCAUGUAGGUGCGGAGGAUAUUUACGUGUCUCAUGUAGAGAAGGCCGUGUCGAGC [SameState NG3 #96] (Eterna round: R96, puzzle: Same State NG 3)”, the “apparent KD of MS2 coat protein” value runs as follows: (input ligand: FMN 200 uM) 37.1 nM; under setting [1], 216 nM; (input ligand: none) 329 nM.

On to “GCUCGACGUAUUGUCUACAUGAGGAUCACCCAUGUAGGUGCGGAGGAUAUUUACGUGUUUCAUGUAGAGAAGGUCGUGUCGAGC [SameState NG3 #94] (Eterna round: R96, puzzle: Same State NG 3)”, for which the “apparent KD of MS2 coat protein” value reads like this: (input ligand: FMN 200 uM) 27.8 nM; under setting [1], 166 nM; (input ligand: none) 185 nM.

In the case of “GCUCGAUGAAAGUCCUACAUGAGGAUCACCCAUGUACGUGGGCAGGAUAUCUACAUGCAGAAUGUAGAGAAGGGCCCGUCGAGC [SameState NG3 #58] (Eterna round: R96, puzzle: Same State NG 3)”, the “apparent KD of MS2 coat protein” value by setting is: (input ligand: FMN 200 uM) 15.1 nM; under setting [1], 16.5 nM; (input ligand: none) 17.4 nM.

Consider “GCUCGAUGAAAGUCCUACAUGAGGAUCACCCAUGUACGUGGGCAGGAUAUUUACAUGCAGAGUGUAGAGAAGGGCCCAUCGAGC [SameState NG3 #61] (Eterna round: R96, puzzle: Same State NG 3)”, for which the “apparent KD of MS2 coat protein” value was 18.3 nM (input ligand: FMN 200 uM), 50.2 nM under setting [1] and 76.4 nM (input ligand: none).

Consider “GCUCGAUGAGCGGUUUACAUGAGGAUCACCCAUGUACGUGGGCAGGAUAUUUACGUGCUUUGUGUAGAGAAGGGCCCAUCGAGC [SameState NG3 #73] (Eterna round: R96, puzzle: Same State NG 3)”, for which the “apparent KD of MS2 coat protein” value is, setting by setting: (input ligand: FMN 200 uM) 39.8 nM; under setting [1], 191 nM; (input ligand: none) 405 nM.

In the case of “GCUCGAUGAGCGUUCUACAUGAGGAUCACCCAUGUUCGUGGGCAGGAUAUUUACGUGCAGAGUGUAGAGAAGGGCCCAUCGAGC [SameState NG3 #67] (Eterna round: R96, puzzle: Same State NG 3)”, the “apparent KD of MS2 coat protein” value runs as follows: (input ligand: FMN 200 uM) 1260 nM; under setting [1], 270 nM; (input ligand: none) 196 nM.
